Experimental data as given in patent publication US20230165982A1 (HOBER BIOTECH, published 2023).

Target: Human epidermal growth factor receptor 2 (HER2) (human, UniProt P04626 23-1255)
Assay: cell-based or functional assay

B1: 99mTc-ADAPT6 (designed binder)
chain: GSSHHHHHHDEAVDANSLAAAKETALYHLDRLGVADAYKDLIDKAKTVEGVKARYFEILHALP
modifications: also: 99mTc(CO)3 chelated by the His6 subsequence (residues 4-9)
tumor-to-contralateral breast ratio (SPECT), 2 h after injection of 250 µg: 7.8
tumor-to-contralateral breast ratio (SPECT), patient 17 (tumor later found FISH-negative), 2 h after injection of 1000 µg: 1.33
